Here are results for four molecules from paper PMC5371818, “Suppression of FOXM1 Transcriptional Activities via a Single-Stranded DNA Aptamer Generated by SELEX”.

Series [1] deals with T1, GST-FOXM1 DBD (UniProt Q08050 225-355).
T1 sequence: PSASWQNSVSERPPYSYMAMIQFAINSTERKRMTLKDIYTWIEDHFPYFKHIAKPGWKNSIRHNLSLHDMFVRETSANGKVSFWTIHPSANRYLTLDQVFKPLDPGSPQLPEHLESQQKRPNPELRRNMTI
Put plainly: fluorescence polarization; EMSA and FP: 20 mM Tris-Cl, 50 mM KCl, 10% glycerol, 0.5 mM EDTA, 0.2 mM DTT, pH 7.6, 30 min on ice; EMSA 50 nM probe, FP 10 nM probe (50 nM in Fig. 1D legend). Conditions: protein: recombinant, tags: N-terminal GST (pGEX-4T-1).

Another series addresses T2, His-FOXM1 full-length (UniProt Q08050 1-763).
T2 sequence: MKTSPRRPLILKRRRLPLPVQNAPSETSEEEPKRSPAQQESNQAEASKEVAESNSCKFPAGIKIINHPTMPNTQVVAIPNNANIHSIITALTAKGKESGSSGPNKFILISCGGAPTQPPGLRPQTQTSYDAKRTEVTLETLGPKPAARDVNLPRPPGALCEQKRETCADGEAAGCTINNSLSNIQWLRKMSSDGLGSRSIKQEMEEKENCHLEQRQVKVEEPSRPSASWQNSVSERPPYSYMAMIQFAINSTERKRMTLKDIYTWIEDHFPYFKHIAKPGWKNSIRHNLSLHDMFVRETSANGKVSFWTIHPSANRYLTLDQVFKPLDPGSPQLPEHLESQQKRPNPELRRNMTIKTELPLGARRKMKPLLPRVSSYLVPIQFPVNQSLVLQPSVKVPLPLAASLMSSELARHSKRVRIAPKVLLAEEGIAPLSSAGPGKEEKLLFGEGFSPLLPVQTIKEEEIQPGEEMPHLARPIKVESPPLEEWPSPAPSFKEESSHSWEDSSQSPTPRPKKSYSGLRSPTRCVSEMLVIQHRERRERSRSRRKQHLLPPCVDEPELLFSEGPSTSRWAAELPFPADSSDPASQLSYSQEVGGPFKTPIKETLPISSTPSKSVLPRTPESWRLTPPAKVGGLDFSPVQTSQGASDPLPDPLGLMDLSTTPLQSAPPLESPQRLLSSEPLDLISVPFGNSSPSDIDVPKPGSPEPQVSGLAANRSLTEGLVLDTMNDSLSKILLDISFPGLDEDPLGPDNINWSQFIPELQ
Described as above. Particulars: protein: recombinant, tags: C-terminal His6 (encoded by reverse primer S6).

Series [2] addresses T1, GST-FOXM1 DBD. The series can be described thus: EMSA; EMSA and FP: 20 mM Tris-Cl, 50 mM KCl, 10% glycerol, 0.5 mM EDTA, 0.2 mM DTT, pH 7.6, 30 min on ice; EMSA 50 nM probe, FP 10 nM probe (50 nM in Fig. 1D legend). Conditions: protein: recombinant; tags: N-terminal GST (pGEX-4T-1); label: 5'-ROX. (In general: Mobility shift assays separate free from complexed probe on a gel.)

The mark [3] stands for this setting: label: 5'-FAM on forward strand (hot) or none (cold), blunt.
The mark [4] stands for this setting: label: 5'-ROX (hot) or none (cold).

B1: FOXM1 dsDNA probe (dsDNA)
DNA 1: TTTGTTTATTTGTTTGTTTATTTG
DNA 2: CAAATAAACAAACAAATAAACAAA
B1: the values for the Kd in the series with GST-FOXM1 DBD [1] (setting [3]) and with His-FOXM1 full-length (setting [3]) were 543 ± 148 nM and 214 ± 249 nM, respectively.
TCACTTCACACCGCATCTCTACGTCCGGTTGCGCTTTCCTTT (ssDNA) [FOXM1 Apt (C1)]: the Kd was determined as 64.8 ± 25.8 nM with GST-FOXM1 DBD [1] (setting [4]) and 172 ± 26.6 nM with His-FOXM1 full-length (setting [4]).
Regarding TCACTTCACACCGCATCTCTACGTCCGGTTGCGCTTTCCTTT (ssDNA, phosphorothioate internucleotide linkages) [M-FOXM1 Apt], in the series with His-FOXM1 full-length, the Kd was 63.9 ± 6.6 nM.
On to TCACTTAAAAAAAAAAAACTCATGAAAAAAAAAAAATCCTTT (ssDNA) [Control Apt], for which, in the series with GST-FOXM1 DBD [2], the binding result is “no binding”.

The Kd is the constant that tells how readily two partners part at equilibrium.
